According to patent publication US20200095615A1:

Assays:
[1] = test system: T1, wild type Penicillium oxalicum glucoamylase
T1 sequence: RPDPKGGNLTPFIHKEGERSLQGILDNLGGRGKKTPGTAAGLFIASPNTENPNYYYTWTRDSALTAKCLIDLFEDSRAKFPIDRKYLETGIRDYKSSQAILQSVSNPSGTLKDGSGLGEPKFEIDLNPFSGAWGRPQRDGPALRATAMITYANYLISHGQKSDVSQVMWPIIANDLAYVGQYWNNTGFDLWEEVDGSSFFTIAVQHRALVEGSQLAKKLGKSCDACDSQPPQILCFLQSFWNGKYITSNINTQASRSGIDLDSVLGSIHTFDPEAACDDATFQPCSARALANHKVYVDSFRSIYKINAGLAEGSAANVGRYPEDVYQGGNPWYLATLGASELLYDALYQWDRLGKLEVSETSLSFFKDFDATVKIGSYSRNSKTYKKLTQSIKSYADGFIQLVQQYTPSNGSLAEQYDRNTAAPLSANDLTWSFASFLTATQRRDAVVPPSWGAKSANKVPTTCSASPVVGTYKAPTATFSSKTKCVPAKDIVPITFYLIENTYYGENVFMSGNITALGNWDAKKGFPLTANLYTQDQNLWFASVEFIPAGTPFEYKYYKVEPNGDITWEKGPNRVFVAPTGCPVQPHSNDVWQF

[2] = biological target: Glucoamylase PE001: variant of the Penicillium oxalicum glucoamylase having a K79V substitution (Penicillium oxalicum); assay: cell-based or functional assay
[3] = biological target: wild type Penicillium oxalicum glucoamylase (Penicillium oxalicum); assay: cell-based or functional assay

intact glucoamylase (ca. 70 kDa), SDS-PAGE after protease treatment overnight at 4 °C [2] [%]	intact glucoamylase (ca. 70 kDa), SDS-PAGE after protease treatment overnight at 32 °C [2] [%]	intact glucoamylase (ca. 70 kDa), SDS-PAGE after protease treatment overnight at 4 °C [3] [%]	intact glucoamylase (ca. 70 kDa), SDS-PAGE after protease treatment overnight at 32 °C [3] [%]	Substance	cleaved glucoamylase (ca. 60 kDa), SDS-PAGE after protease treatment overnight at 32 °C [1] [%]	cleaved glucoamylase (ca. 60 kDa), SDS-PAGE after protease treatment overnight at 4 °C [1] [%]
–	–	–	–	aspergillopepsin I	10	–
–	–	–	–	aorsin	90	60
100	100	40	10	aorsin (enzyme)	–	–
100	100	100	90	aspergillopepsin I (enzyme)	–	–
